We go through 15 molecules from US8247380B2, “Alpha 1-acid glycoprotein, alpha 2-HS glycoprotein, alpha 1-antitrypsin, and fragments thereof induce apoptosis in cancer cell lines” (Ambryx Biotechnology, D.C., priority 1997, dated 2012).

No end group written: not given here.

The subject of one assay is cancer cell lines. In words: Apoptosis assay, cancer cells (cell line not given). Type of assay: cell-based.
Assay [1] deals with HT-29 (human colon adenocarcinoma). In words: Apoptosis assay, HT-29 cells. As to conditions: for apoptotic activity / morphology (in words): 5 μM, 4 hours.
Procedure: Prostate cancer cell line LNCAP was routinely used for the isolation of Apogen P-1 and Apogen P-2, whereas leukemia cell line HL-60 was used for the isolation of Apogen L. The methods of assays were as follows: LNCAP or HL-60 (1,000 cells) was seeded in 10 microliters RPMI containing 15% or 20% Fetal bovine serum, penicillin and streptomycin at 37 degrees, 5% CO2 in Microtray plates (25 μl wells, Robbins Scientific Corp.). The tested sample (10 μl) was added 3-4 hours after cells were seeded. After incubation of the tested sample with cells for 15 hours, two microliters of Hoechst dye (0.03 ng/ml in PBS) was added. Two hours later, cells that were stained with Hoechst dye were examined under fluorescence microscope. […] The percentage of apoptotic cells was calculated by the following equation:
The DNA condensation, DNA fragmentation and peripheral crescents of the nuclei are characteristics of a cell under apoptosis.
Assay [2] concerns LNCaP (prostate cancer) cells. Put plainly: Cell death (apoptosis) assay, LNCaP cells. The note with it: for apoptotic activity / membrane blebbing (in words): chemically synthesized peptide, three (3) hours of incubation. Type of assay: cell-based, human. As for the experimental part:
[…] The free Zinc Acetate and Barium Acetate were removed by repetitive concentration. Fetuin was tested in LNCaP and HL-60 cells. […] Fetuin (in 10 μl PBS) at concentration of 100 ng/ml was added 3-4 hours after the cells were seeded.

The test system of assay [3] is CCD-18 Co (human normal colon fibroblast). In words: Apoptosis assay, CCD-18 Co cells. The format is cell-based. The note with it: various concentrations of SEQ ID NO: 1. An excerpt: Zinc charged alpha 1-acid glycoprotein has no effect on CCD 18Co cells (human normal colon fibroblast).
In a further assay the test system is HL-60 (leukemia) cells. Put plainly: Cell death (apoptosis) assay, HL-60 cells. Type of assay: cell-based, human. As to conditions: peptide fragment: 6 hours. As for the experimental part: Fetuin purified from fetal bovine serum by the procedure described above was dissolved in phosphate buffer saline (PBS). The free Zinc Acetate and Barium Acetate were removed by repetitive concentration. Fetuin was tested in LNCaP and HL-60 cells. […] Fetuin (in 10 μl PBS) at concentration of 100 ng/ml was added 3-4 hours after the cells were seeded.

In assay [4] the test system is Calu-1 (human lung carcinoma). In words: Apoptosis assay, Calu-1 cells. The format is cell-based. As to conditions: peptide fragment: 6 hours.
Assay [5] has as its system p3HR-1 (human Burkitt lymphoma). In words: Apoptosis assay, p3HR-1 cells. The format is cell-based. The note with it: peptide fragment: 6 hours.
In the next assay the test system is Hep G2 (Human hepatoma). In words: Apoptosis assay, Hep G2 cells.
[6] abbreviates: various concentrations of SEQ ID NO: 1.

Procedure for cancer cell lines: The tested sample (10 μl) was added 3-4 hours after cells were seeded. After incubation of the tested sample with cells for 15 hours, two microliters of Hoechst dye (0.03 ng/ml in PBS) was added. Two hours later, cells that were stained with Hoechst dye were examined under fluorescence microscope. […] The percentage of apoptotic cells was calculated by the following equation:

For the molecule “alpha 1-acid glycoprotein (without zinc): alpha 1-acid glycoprotein pre-incubated with EDTA without recharging with zinc [reference compound]”, the “induction of apoptosis in cancer/tumor cell lines (in words)” value with cancer cell lines is “failed to induce apoptosis”. For the same molecule, the “apoptotic activity / morphology (in words)” value in assay [1] was “no apoptotic activity was seen”.

Consider “calcium charged alpha 1-antitrypsin: alpha 1-antitrypsin pre-incubated with EDTA and recharged with calcium [reference compound]”, for which the “apoptotic activity / morphology (in words)” value in assay [1] is “no apoptotic activity was seen”.

For the molecule “calcium charged alpha 1-acid glycoprotein: alpha 1-acid glycoprotein pre-incubated with EDTA and recharged with calcium [reference compound]”, in assay [1], the “apoptotic activity / morphology (in words)” value is listed as “no apoptotic activity was seen”.

On to “alpha 1-antitrypsin (without zinc): alpha 1-antitrypsin pre-incubated with EDTA without recharging with zinc [reference compound]”, for which, in the assay on cancer cell lines, the “induction of apoptosis in cancer/tumor cell lines (in words)” value was “failed to induce apoptosis”. In addition, the “apoptotic activity / morphology (in words)” value in assay [1] is listed as “no apoptotic activity was seen”.

Take “alpha 1-acid glycoprotein purchased from Sigma, after zinc charging: commercial alpha 1-acid glycoprotein after zinc charging”: the “induction of apoptosis in cancer/tumor cell lines (in words)” value in the assay with cancer cell lines is listed as “contained the same activity”.

As for “HTFSGVASVE [SEQ ID NO: 1, H-T-F-S-G-V-A-S-V-E]”, the “apoptotic activity / membrane blebbing (in words)” value in assay [2] is reported as “caused membrane “blebbing””. Also, in assay [2] (estimate), the “potency relative to fetuin prepared from other methods” value is listed as “several thousand times”. Moreover, the “potency relative to Supercharged Zinc Fetuin” value in assay [2] (estimate, see FIG. 13) is given as “eight to ten times”. Further, the results for the “induction of apoptosis (in words)” value in assay [2] (setting [6]), in assay [3] and in assay [1] (setting [6]) were “induced apoptosis”, “without affecting” and “induced apoptosis”, respectively. This molecule also showed an induced apoptosis in assay [1] (0.4 μM, four (4) hours) of 52%. For the same molecule, the “cells induced to apoptosis (in words)” value in assay [1] (0.4 μM, six (6) hours) is reported as “almost all”.

With “S-A-S-G-E-A-F-H (SASGEAFH; Polypeptide fragment from treatment of fetuin from bovine sera as described in the specification.) [SEQ ID NO: 2, chemically synthesized bovine fetuin fragment, amino acid no; 310-317]”, the “apoptotic activity / membrane blebbing (in words)” value in assay [2] is listed as “did not show any apoptotic activity”.

B1: Fetuin purchased from Sigma: commercial fetuin prepared by ammonium sulfate precipitation and EDTA treatment (protein, UniProt P12763 19-359, looked up)
Alpha-2-HS-glycoprotein: IPLDPVAGYKEPACDDPDTEQAALAAVDYINKHLPRGYKHTLNQIDSVKVWPRRPTGEVYDIEIDTLETTCHVLDPTPLANCSVRQQTQHAVEGDCDIHVLKQDGQFSVLFTKCDSSPDSAEDVRKLCPDCPLLAPLNDSRVVHAVEVALATFNAESNGSYLQLVEISRAQFVPLPVSVSVEFAVAATDCIAKEVVDPTKCNLLAEKQYGFCKGSVIQKALGGEDVRVTCTLFQTQPVIPQPQPDGAEAEAPSAVPDAAGPTPSAAGPPVASVVVGPSVVAVPLPLHRAHYDLRHTFSGVASVESSSGEAFHVGKTPIVGQPSIPGGPVRLCPGRIRYFKI
As to B1, in assay [2] (long incubation time (2 days)), the “concentration at which apoptosis inducing activity was observed” value was more than 250 µg/mL and the “concentration at which apoptosis was induced” value was more than 5 mM. Besides, in the assay with cancer cell lines, the “induction of apoptosis in cancer/tumor cell lines (in words)” value was “very low activity”.

B2: natural fetuin: natural fetuin whose carbohydrate moiety was removed by certain enzymes (protein, UniProt P12763 19-359, looked up)
Alpha-2-HS-glycoprotein: B1 Alpha-2-HS-glycoprotein
modifications: deglycosylated
notes: natural fetuin whose carbohydrate moiety was removed by certain enzymes
For the molecule B2, the “boost of apoptotic inducing activity when carbohydrate moiety removed by certain enzymes” value in the assay on cancer cell lines is given as 2-3 fold.

B3: supercharged zinc fetuin: Section 4A fetuin stripped of ions with EDTA and reloaded with 0.5 M Zinc Acetate (protein, UniProt P12763 19-359, looked up)
Alpha-2-HS-glycoprotein: B1 Alpha-2-HS-glycoprotein
modifications: zinc charged
notes: Section 4A fetuin stripped of ions with EDTA and reloaded with 0.5 M Zinc Acetate
In the case of B3, the “enhancement of ability to induce apoptosis versus original fetuin bound with zinc (Section 4A)” value in assay [2] (from LD50 on LNCaP cells incubated for 6 hours) is on record as “three to four times”.

B4: Fetuin-Ca: fetuin bound with calcium (protein, UniProt P12763 19-359, looked up)
Alpha-2-HS-glycoprotein: B1 Alpha-2-HS-glycoprotein
modifications: calcium bound
On to B4, for which the “induction of apoptosis in cancer/tumor cell lines (in words)” value with cancer cell lines was “inactive in inducing apoptosis”.

B5: E. Coli-expressed fetuin: recombinant bovine fetuin expressed in E. Coli (protein, UniProt P12763 19-359, looked up)
Alpha-2-HS-glycoprotein: B1 Alpha-2-HS-glycoprotein
modifications: expressed in E. coli
As to B5, the “apoptotic activity relative to supercharged zinc fetuin (Section 4F)” value with cancer cell lines was “about 5 times”.

B6: alpha 2-HS glycoprotein (without zinc): alpha 2-HS glycoprotein pre-incubated with EDTA without recharging with zinc (protein, UniProt P02765 19-300; P02765 341-367, looked up)
Alpha-2-HS-glycoprotein chain … 1: APHGPGLIYRQPNCDDPETEEAALVAIDYINQNLPWGYKHTLNQIDEVKVWPQQPSGELFEIEIDTLETTCHVLDPTPVARCSVRQLKEHAVEGDCDFQLLKLDGKFSVVYAKCDSSPDSAEDVRKVCQDCPLLAPLNDTRVVHAAKAALAAFNAQNNGSNFQLEEISRAQLVPLPPSTYVEFTVSGTDCVAKEATEAAKCNLLAEKQYGFCKATLSEKLGGAEVAVTCMVFQTQPVSSQPQPEGANEAVPTPVVDPDAPPSPPLGAPGLPPAGSPPDSHVL
Alpha-2-HS-glycoprotein chain … 2: TVVQPSVGAAAGPVVPPCPGRIRHFKV
modifications: EDTA treated
notes: alpha 2-HS glycoprotein pre-incubated with EDTA without recharging with zinc
As for B6, the “induction of apoptosis in cancer/tumor cell lines (in words)” value in the assay with cancer cell lines is recorded as “fails to induce apoptosis”. The “apoptotic activity / morphology (in words)” value in assay [1] is on record as “no apoptotic activity was seen”.

B7: zinc charged alpha 2-HS glycoprotein: alpha 2-HS glycoprotein (Sigma), EDTA treated and charged with zinc acetate (protein, UniProt P02765 19-300; P02765 341-367, looked up)
Alpha-2-HS-glycoprotein chain … 1: B6 Alpha-2-HS-glycoprotein chain … 1
Alpha-2-HS-glycoprotein chain … 2: TVVQPSVGAAAGPVVPPCPGRIRHFKV
modifications: zinc charged
notes: alpha 2-HS glycoprotein (Sigma), EDTA treated and charged with zinc acetate
B7: the “apoptotic activity, panel of cell lines (in words)” value (in assay [2]; in the assay on HL-60 (leukemia) cells; in assay [4]; in assay [5]; in assay [1] (peptide fragment: 6 hours); in the assay on Hep G2 (Human hepatoma)) was “induced apoptosis” throughout. For the same molecule, in assay [1], the “apoptotic activity / morphology (in words)” value is “caused cell shrinkage and membrane blebbing”.

B8: calcium charged alpha 2-HS glycoprotein: alpha 2-HS glycoprotein pre-incubated with EDTA and recharged with calcium (protein, UniProt P02765 19-300; P02765 341-367, looked up)
Alpha-2-HS-glycoprotein chain … 1: B6 Alpha-2-HS-glycoprotein chain … 1
Alpha-2-HS-glycoprotein chain … 2: TVVQPSVGAAAGPVVPPCPGRIRHFKV
modifications: calcium charged
For B8, in assay [1], the “apoptotic activity / morphology (in words)” value is listed as “no apoptotic activity was seen”.
